In patent US20220356221A1 (ASKGENE PHARMA, published 2022):

Biological target: human IL-12 receptor on HEK-Blue IL-12 reporter cells (human, UniProt P42701 24-662; Q99665 24-862)
Assay: cell-based or functional assay

human IL-12 receptor on HEK-Blue IL-12 reporter cells, sequence (Q99665 24-862, chain 2 of 2, other chains not shown): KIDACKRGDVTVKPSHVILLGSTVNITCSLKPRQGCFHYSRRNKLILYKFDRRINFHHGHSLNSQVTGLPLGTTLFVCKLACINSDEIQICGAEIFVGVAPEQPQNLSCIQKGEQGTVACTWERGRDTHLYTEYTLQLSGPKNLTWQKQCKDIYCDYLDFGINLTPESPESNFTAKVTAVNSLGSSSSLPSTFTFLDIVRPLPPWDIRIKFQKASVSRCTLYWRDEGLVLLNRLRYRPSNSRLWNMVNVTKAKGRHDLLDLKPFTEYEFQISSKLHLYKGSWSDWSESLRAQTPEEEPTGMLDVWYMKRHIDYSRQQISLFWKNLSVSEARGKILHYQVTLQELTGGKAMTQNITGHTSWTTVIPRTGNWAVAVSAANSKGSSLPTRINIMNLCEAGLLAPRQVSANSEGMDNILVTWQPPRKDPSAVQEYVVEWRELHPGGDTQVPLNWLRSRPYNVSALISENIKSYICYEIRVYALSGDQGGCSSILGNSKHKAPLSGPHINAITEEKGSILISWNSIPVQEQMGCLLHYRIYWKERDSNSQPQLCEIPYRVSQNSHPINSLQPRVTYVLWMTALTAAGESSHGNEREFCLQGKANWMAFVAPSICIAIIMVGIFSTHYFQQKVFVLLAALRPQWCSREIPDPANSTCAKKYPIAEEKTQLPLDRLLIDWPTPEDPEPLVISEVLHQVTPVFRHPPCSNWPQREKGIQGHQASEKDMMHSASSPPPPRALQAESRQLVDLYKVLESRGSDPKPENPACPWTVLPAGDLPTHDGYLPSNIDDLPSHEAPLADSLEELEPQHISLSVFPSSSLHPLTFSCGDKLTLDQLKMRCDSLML

EC50 in the cell-based IL-12 reporter assay (HEK-Blue IL-12, STAT4-inducible SEAP, OD630): ~0.05 nM | fold activation based on the EC50 values (after protease treatment against prior to it): ~18 fold
B1: IL-12 prodrug JR3.105.5 after protease treatment (activated) (Fc fusion)
chain: DKTHTCPPCPAPELLGGPSVFLFPPKPKDTLMISRTPEVTCVVVDVSHEDPEVKFNWYVDGVEVHNAKTKPREEQYASTYRVVSVLTVLHQDWLNGKEYKCKVSNKALPAPIEKTISKAKGQPREPQVYTLPPCRDELTKNQVSLWCLVKGFYPSDIAVEWESNGQPENNYKTTPPVLDSDGSFFLYSKLTVDKSRWQQGNVFSCSVMHEALHNHYTQKSLSLSPGAGGGGSGGGGSGGGGSIWELKKDVYVVELDWYPDAPGEMVVLTCDTPEEDGITWTLDQSSEVLGSGKTLTIQVKEFGDAGQYTCHKGGEVLSHSLLLLHKKEDGIWSTDILKDQKEPKNKTFLRCEAKNYSGRFTCWWLTTISTDLTFSVKSSRGSSDPQGVTCGAATLSAERVRGDNKEYEYSVECQEDSACPAAEESLPIEVMVDAVHKLKYENYTSSFFIRDIIKPDPPKNLQLKPLKNSRQVEVSWEYPDTWSTPHSYFSLTFCVQVQGKSKREKKDRVFTDKTSATVICRKNASISVRAQDRYYSSSWSEWASVPCSGGGGSGGGGSGGGGSRNLPVATPDPGMFPCLHHSQNLLRAVSNMLQKARQTLEFYPCTSEEIDHEDITKDKTSTVEACLPLELTKNESCLNSRETSFITNGSCLASRKTSFMMALCLSSIYEDLKMYQVEFKTMNAKLLMDPKRQIFLDQNMLAVIDELMQALNFNSETVPQKSSLEEPDFYKTKIKLCILLHAFRIRAVTIDRVMSYLNAS
